How the values were obtained:
[1] = target: FLAG-tagged BicD2-Kif1c tail fusion (mouse) (UniProt O35071); test: centrosome recruitment assay with BicD2-kinesin tail fusions (relocalisation in cells, microscopy); N2A cells transfected with FLAG-BicD2-KIF tail fusion and EGFP-tagged RBP (2:3), fixed after 24 h, anti-FLAG staining; read-out log2 of the mean EGFP intensity at the centrosome over the mean intensity in the whole cell
[2] = target: FLAG-tagged BicD2-Kif1bα tail fusion (mouse) (UniProt Q60575); test: as above
FLAG-tagged BicD2-Kif1bα tail fusion (mouse), sequence (Q60575 other isoform, or with tags, fused parts or gaps): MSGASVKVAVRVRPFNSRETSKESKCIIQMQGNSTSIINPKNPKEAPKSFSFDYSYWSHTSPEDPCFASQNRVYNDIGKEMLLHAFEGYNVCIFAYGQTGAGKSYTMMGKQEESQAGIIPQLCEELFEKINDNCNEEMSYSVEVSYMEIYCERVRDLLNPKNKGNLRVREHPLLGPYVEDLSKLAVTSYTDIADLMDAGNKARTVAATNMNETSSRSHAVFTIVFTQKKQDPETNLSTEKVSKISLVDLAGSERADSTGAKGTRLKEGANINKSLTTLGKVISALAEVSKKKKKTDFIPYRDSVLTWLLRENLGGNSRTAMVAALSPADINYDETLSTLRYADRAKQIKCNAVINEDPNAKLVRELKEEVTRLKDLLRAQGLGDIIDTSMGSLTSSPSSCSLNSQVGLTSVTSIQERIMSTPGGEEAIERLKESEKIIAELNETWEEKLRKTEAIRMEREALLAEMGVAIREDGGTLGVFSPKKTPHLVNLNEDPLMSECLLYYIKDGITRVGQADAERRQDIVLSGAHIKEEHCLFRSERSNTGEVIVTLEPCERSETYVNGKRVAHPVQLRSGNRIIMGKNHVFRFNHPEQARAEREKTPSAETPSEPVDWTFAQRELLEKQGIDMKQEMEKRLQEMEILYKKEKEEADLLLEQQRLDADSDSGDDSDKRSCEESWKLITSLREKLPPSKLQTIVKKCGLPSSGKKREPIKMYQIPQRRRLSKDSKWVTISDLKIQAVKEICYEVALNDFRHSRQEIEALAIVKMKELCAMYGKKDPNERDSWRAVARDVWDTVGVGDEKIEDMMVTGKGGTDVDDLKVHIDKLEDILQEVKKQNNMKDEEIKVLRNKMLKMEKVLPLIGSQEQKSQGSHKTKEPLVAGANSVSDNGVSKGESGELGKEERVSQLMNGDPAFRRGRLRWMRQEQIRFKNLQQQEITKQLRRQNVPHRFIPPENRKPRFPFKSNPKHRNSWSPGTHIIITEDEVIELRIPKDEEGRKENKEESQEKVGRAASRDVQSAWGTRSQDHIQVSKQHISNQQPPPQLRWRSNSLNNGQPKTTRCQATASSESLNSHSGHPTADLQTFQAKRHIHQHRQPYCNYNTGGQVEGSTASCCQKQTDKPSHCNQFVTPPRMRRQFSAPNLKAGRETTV

FLAG-tagged BicD2-Kif1c tail fusion (mouse), sequence (O35071 whole entry, the tested form may be a part): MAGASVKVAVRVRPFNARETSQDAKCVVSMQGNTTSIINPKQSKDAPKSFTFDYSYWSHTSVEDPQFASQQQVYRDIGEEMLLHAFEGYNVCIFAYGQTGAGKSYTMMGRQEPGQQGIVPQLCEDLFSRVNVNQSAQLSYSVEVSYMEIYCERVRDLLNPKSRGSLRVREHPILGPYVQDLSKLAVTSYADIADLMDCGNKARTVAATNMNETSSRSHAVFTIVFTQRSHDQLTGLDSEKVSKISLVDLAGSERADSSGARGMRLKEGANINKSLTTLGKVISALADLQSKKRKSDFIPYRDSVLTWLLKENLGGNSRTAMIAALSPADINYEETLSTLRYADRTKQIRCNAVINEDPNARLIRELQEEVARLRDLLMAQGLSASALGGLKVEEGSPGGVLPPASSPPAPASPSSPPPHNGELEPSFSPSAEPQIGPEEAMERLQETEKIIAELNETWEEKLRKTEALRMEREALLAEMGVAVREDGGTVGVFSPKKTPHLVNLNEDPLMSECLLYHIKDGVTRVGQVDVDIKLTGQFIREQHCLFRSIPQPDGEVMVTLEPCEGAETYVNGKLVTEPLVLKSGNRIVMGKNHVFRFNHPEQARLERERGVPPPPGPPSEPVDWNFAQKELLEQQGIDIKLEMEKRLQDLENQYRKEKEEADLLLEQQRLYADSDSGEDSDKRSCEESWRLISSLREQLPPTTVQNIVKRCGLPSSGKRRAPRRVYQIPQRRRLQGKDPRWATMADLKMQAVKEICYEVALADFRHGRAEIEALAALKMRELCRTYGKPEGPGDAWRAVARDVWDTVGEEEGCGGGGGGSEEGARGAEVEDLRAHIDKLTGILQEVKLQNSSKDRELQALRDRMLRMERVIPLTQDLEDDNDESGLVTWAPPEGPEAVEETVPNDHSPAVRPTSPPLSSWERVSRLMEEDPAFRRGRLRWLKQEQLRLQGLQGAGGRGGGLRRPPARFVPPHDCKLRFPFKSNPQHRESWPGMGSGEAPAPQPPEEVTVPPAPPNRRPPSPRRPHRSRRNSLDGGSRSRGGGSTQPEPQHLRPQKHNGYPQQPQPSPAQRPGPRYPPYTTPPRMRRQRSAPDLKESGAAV

B1: EGFP-Tis11d (natural protein)
chain: MSTTLLSPFYDIDFLCKTEKSLANLNLNNMLDKKAVGTPVAAAPSSSFTPGFLRRHSASNLHALAHPVPSPGSCSPKFPGAPNGGGSSCGPAGGGGLASYGQLKEPSGGSGTALVTKESKFRDRSFSENGERSQHLLHLQQQQKGGSGSQINSTRYKTELCRPFEESGTCKYGEKCQFAHGFHELRSLTRHPKYKTELCRTFHTIGFCPYGPRCHFIHNADERRPAPSGGGGASGDLRAFGARDALHLGFAREPRPKLHHSLSFSGFPSGHHQPPGGLESPLLLDSPTSRTPPPPSSSASSCSSSASSCSSASAASTPSGAPTCCATAAAAALLYGPGGAEDLLSPGAPCASCSSSGANNAFAFGPELSSLITPLAIQTHNFAAAAAAAYYRNQQQGLTGPAPPPAQPPAAPAPPSPPFGFQLPRRLSESPVFDAPPSPPDSLSDRDSYLSGSLSSGSLSGSESPSLDPGRRLPIFSRLSISDD
B1 showed a log2 mean centrosome recruitment [1] of 1.13 log2 and a log2 mean centrosome recruitment [2] of 1.24 log2.

— PMC10256740
